Laboratory results as given in publication PMC3157250 (2011).

B1: HCMV protease (HCMV Pr) (protein)
chain: MTMDEQQSQAVAPVYVGGFLARYDQSPDEAELLLPRDVVEHWLHAQGQGQPSLSVALPLNINHDDTAVVGHVAAMQSVRDGLFCLGCVTSPRFLEIVRRASEKSELVSRGPVSPLQPDKVVEFLSGSYAGLSLSSRRCDDVEAATSLSGSETTPFKHVALCSVGRRRGTLAVYGRDPEWVTQRFPDLTAADRDGLRAQWQRCGSTAVDASGDPFRSDSYGLLGNSVDALYIRERLPKLRYDKQLVGVTERESYVKA

Key:
[1] = molecular target: KSHV protease (Kaposi's sarcoma-associated herpesvirus) (UniProt Q2HRB6); conditions: cited from earlier work
[2] = molecular target: the molecule itself; assay: fluorescence-based substrate cleavage kinetics assay

| Molecule | Kd [1] [nM] | Kd [2] [nM] |
| --- | --- | --- |
| KSHV protease (from UniProt Q2HRB6) | 1700 | – |
| B1 | – | 1300 |
